Results published in patent publication US20260306676A1, “FLUORESCEIN-LABELED NERVE TARGETING PEPTIDE FORMULATIONS AND RELATED METHODS” (ALUME BIOSCIENCES, INC., priority 2023, published 2026).
Values after ≈ are worked out from the molar mass of the structure shown. Where a name gives a salt, the structure may show the parent alone.

What was measured:
[1] = Drug product assay of lyophiles by HPLC; type: physicochemical; conditions: Pre-Lyo., starting peptide
Procedure: The content and purity of the ALM-488 peptide in the lyophilized product vials for Samples 10-1, 10-2 and 10-3 were evaluated using the HPLC method conditions of Table 3. […] The resulting solution was then transferred to a 200 mL volumetric flask. Each vial was rinsed well with water, and the rinses were transferred to the flask prior to volume make-up to 200 mL with water. The resulting solutions (~0.25 mg/mL of ALM488) were individually injected into the HPLC system and were analyzed as described above. The lyophilization process appeared to cause a small increase in the levels of some impurities.

[2] = Influence of storage temperature on stability of ALM-488 solution (HPLC); type: physicochemical
Procedure: To evaluate whether the ALM-488, HCl salt can be supplied in the form of a concentrated frozen solution, 50 mg/mL solutions of the HCl salt were prepared in water and evaluated for storage stability at different temperatures. The solutions having pH of 1.87 were prepared in sterile water for injection, and these solutions were stored at different storage temperatures (−20° C., 5° C. and 40° C.) and were analyzed using the HPLC method of Table 3 at different time periods.

[3] = Effect of organic amine compounds on solubility of ALM-488 (pH titration)
Procedure: To assess formulations that could be used to prepare ~50 mg/vial samples of ALM-488, and samples having an ALM-488 concentration of ~50 mg/mL, formulations having different organic amine compounds were studied. Each of these samples included (i) ALM-488 hydrochloride, (ii) a suitable base appropriate for a freeze-dried formulation (to adjust solution pH to optimal 7-8, as described in Examples 4 and 5), and (iii) at least one organic amine compound functioning as a pH-adjusting agent, bulking agent and/or a tonicity-adjusting agent. […] 55-60 mg/mL solutions of ALM-488 (pH 1.8-1.9) were titrated by gradual addition of 750 mM arginine, 1 M Tris, or 1 M meglumine.

[4] = Influence of pH on solubility and stability of ALM-488; type: physicochemical
Procedure: To understand pH-stability relationships, solutions of the ALM-488, HCl salt were prepared at ~1 mg/mL in 50 mM sodium citrate (pH 4-6) or sodium phosphate buffer (pH 7-8) solutions. […] All mixtures were filtered through a 0.45 μm PVDF syringe filter to remove undissolved solid, prior to storage. The filtered solution pH values were measured, and the samples were analyzed by HPLC using the HPLC method conditions of Table 3. Table lists the measured concentrations of ALM-488 (after filtration) as well as the measured solution pH values.
The solutions were then transferred into HPLC sample vials and were stored at 5° C., room temperature (22-23° C.) and 40° C.
Table 5 below summarizes the measured concentrations of intact ALM-488 peptide quantified relative to a standard solution, as well as the area % of the main peptide peaks as measured using the HPLC analysis method of Table 3. FIG. 9 is an overlay of representative chromatograms of the ALM-488 solutions at different solution pH values stored at 40° C. for 24 h. […] At higher pH values, the impurity at RRT ~0.96 appeared to grow during storage.

[5] = Thermogravimetric analysis of purified ALM-488 chloride salt; type: physicochemical
[6] = pH-moderated solubility (NaOH titration) of ALM-488 salts; type: physicochemical
Procedure: A titration experiment was carried out using the ALM-488, HCl salt to determine if a nominal 40-50 mg/mL or higher solubility could be retained as pH is increased by gradual addition of NaOH. […] At solution pH values <4 the peptide remained in solution at concentrations >50 mg/mL. Above pH 4, the peptide precipitated. […] Dilution of the mixture due to base addition decreased the peptide concentration to ~47 mg/mL at pH values >7.
FIG. 8 is an overlay of the titration curves for ALM-488 hydrochloride and the ALM-488 acetate.

[7] = Karl Fisher water content of purified ALM-488 chloride salt; type: physicochemical; conditions: oven 100° C.
Procedure: Karl Fisher titration was carried out on the chloride salt of ALM-488 using a Mettler Toledo Stromboli automatic oven sample changer. The instrument was standardized with a Hydranal® Water standard (Fluka). The solid ALM-488 sample was weighed into a sample vial and was heated to 100° C. in the oven, and the water vaporized from the sample was transferred to the titrator cell by purge gas.

[8] = 50 mg/mL in sterile water, 7 Days (5° C.)
[9] = 50 mg/mL in sterile water, 7 Days (40° C.)
[10] = 50 mg/mL in sterile water, 7 Days (−20° C.)
[11] = 50 mg/mL in sterile water, Initial (RT)
[12] = After 24 hours at 40° C., Citrate buffer 50 mM, pH 3.95
[13] = After 24 hours at 40° C., Citrate buffer 50 mM, pH 4.97
[14] = After 24 hours at 40° C., Citrate buffer 50 mM, pH 6.01
[15] = After 24 hours at 40° C., Phos. buffer 50 mM, pH 7.04
[16] = After 24 hours at 40° C., Phos. buffer 50 mM, pH 8.18
[17] = After 24 hours at 40° C., Water
[18] = Initial, Citrate buffer 50 mM, pH 3.95
[19] = Initial, Citrate buffer 50 mM, pH 4.97
[20] = Initial, Phos. buffer 50 mM, pH 7.04
[21] = Initial, Phos. buffer 50 mM, pH 8.18

SMILES: CC(C)[C@H](NC(=O)[C@H](Cc1ccc(O)cc1)NCCCCC(=O)[C@H](Cc1ccc(O)cc1)NC(=O)[C@@H]1CCCN1C(=O)[C@H](CCC(=O)O)NC(=O)[C@H](CCC(=O)O)NC(=O)[C@H](Cc1c[nH]c2ccccc12)NC(=O)[C@@H]1CCCN1C(=O)[C@@H](NC(=O)[C@H](CCC(N)=O)NC(=O)c1ccc2c(c1)C(=O)OC21c2ccc(O)cc2Oc2cc(O)ccc21)C(C)C)C(=O)N[C@H](C(=O)N[C@@H](CCCCN)C(=O)N[C@@H](CCCCN)C(=O)N[C@@H](CO)C(=O)N[C@@H](CO)C(=O)NCC(=O)NCC(N)=O)C(C)C [ALM-488, Bevonescein]
- ALM-488 main peak [1]: 99.69 Area %
- impurity RRT~0.97 [1]: 0.14 Area %
- impurity RRT~1.06 [1]: 0.11 Area %
- impurity RRT~1.38 [1]: 0.02 Area %
- ALM-488 main peak [2, 8]: 99.61 AREA %
- impurity RRT~0.73 [2, 8]: 0.07 AREA %
- impurity RRT~0.97 [2, 8]: 0.15 AREA %
- impurity RRT~1.06 [2, 8]: 0.14 AREA %
- impurity RRT~1.38 [2, 8]: 0.05 AREA %
- ALM-488 main peak [2, 9]: 97.96 AREA %
- impurity RRT~0.73 [2, 9]: 0.05 AREA %
- impurity RRT~0.93 [2, 9]: 0.09 AREA %
- impurity RRT~0.97 [2, 9]: 0.07 AREA %
- impurity RRT~1.06 [2, 9]: 1.43 AREA %
- impurity RRT~1.18 [2, 9]: 0.07 AREA %
- impurity RRT~1.38 [2, 9]: 0.27 AREA %
- ALM-488 main peak [2, 10]: 99.56 AREA %
- impurity RRT~0.73 [2, 10]: 0.07 AREA %
- impurity RRT~0.94 [2, 10]: 0.03 AREA %
- impurity RRT~0.97 [2, 10]: 0.16 AREA %
- impurity RRT~1.06 [2, 10]: 0.15 AREA %
- impurity RRT~1.38 [2, 10]: 0.04 AREA %
- ALM-488 main peak [2, 11]: 99.64 AREA %
- impurity RRT~0.94 [2, 11]: 0.09 AREA %
- impurity RRT~0.97 [2, 11]: 0.23 AREA %
- impurity RRT~1.06 [2, 11]: 0.09 AREA %
- solubility [3]: > 50000 µg/mL
- solubility ([4]; 50 mm citrate buffer, aqueous buffer, citrate buffers (pH 4-6), read-out: solubility): < 1000 µg/mL
- ALM488 concentration [4, 12]: 0.87 mg/mL
- HPLC purity, area % [4, 12]: 99.5%
- ALM488 concentration [4, 13]: 0.18 mg/mL
- HPLC purity, area % [4, 13]: 99.8%
- ALM488 concentration [4, 14]: 0.60 mg/mL
- HPLC purity, area % [4, 14]: 99.8%
- ALM488 concentration [4, 15]: 0.95 mg/mL
- HPLC purity, area % [4, 15]: 99.8%
- ALM488 concentration [4, 16]: 0.96 mg/mL
- HPLC purity, area % [4, 16]: 99.5%
- ALM488 concentration [4, 17]: 0.86 mg/mL
- HPLC purity, area % [4, 17]: 99.3%
- Measured solution pH ([4]; Citrate buffer 50 mM (pH 3.95)): 3.85
- solubility ([4]; Citrate buffer 50 mM (pH 3.95), read-out: Measured concentration in filtered solution): 830 µg/mL (≈ 351 µM)
- Measured solution pH ([4]; Citrate buffer 50 mM (pH 4.97)): 4.89
- solubility ([4]; Citrate buffer 50 mM (pH 4.97), read-out: Measured concentration in filtered solution): 180 µg/mL (≈ 76.1 µM)
- Measured solution pH ([4]; Citrate buffer 50 mM (pH 6.01)): 5.91
- solubility ([4]; Citrate buffer 50 mM (pH 6.01), read-out: Measured concentration in filtered solution): 610 µg/mL (≈ 258 µM)
- ALM488 concentration [4, 18]: 0.83 mg/mL
- HPLC purity, area % [4, 18]: 99.3%
- ALM488 concentration [4, 19]: 0.18 mg/mL
- HPLC purity, area % [4, 19]: 99.8%
- ALM488 concentration ([4]; Initial, Citrate buffer 50 mM, pH 6.01): 0.61 mg/mL
- ALM488 concentration [4, 20]: 0.94 mg/mL
- HPLC purity, area % [4, 20]: 99.7%
- ALM488 concentration [4, 21]: 0.95 mg/mL
- HPLC purity, area % [4, 21]: 99.7%
- ALM488 concentration ([4]; Initial, Water): 0.86 mg/mL
- HPLC purity, area % ([4]; Initial, Water): 99.8%
- Measured solution pH ([4]; Phos. buffer 50 mM (pH 7.04)): 6.94
- Measured solution pH ([4]; Phos. buffer 50 mM (pH 8.18)): 7.90
- Measured solution pH ([4]; Water): 3.46
- solubility ([4]; aqueous buffer, pH 5, citrate buffer, read-out: solubility near isoelectric pH): ~200 µg/mL (≈ 84.5 µM)
- solution stability ([4]; neutral pH values): adequate solution stability
- solubility ([4]; phosphate buffer 50 mm, Phos. buffer 50 mM (pH 7.04), read-out: Measured concentration in filtered solution): 940 µg/mL (≈ 397 µM)
- solubility ([4]; phosphate buffer 50 mm, Phos. buffer 50 mM (pH 8.18), read-out: Measured concentration in filtered solution): 950 µg/mL (≈ 401 µM)
- impurity at RRT ~1.4 ([4]; water (pH 3.46), 40° C. for 24 h): ~ 0.5 area %
- dissolution ([4]; water (pH 3.5) and phosphate buffer (pH 7-8), ~1 mg/mL): rapid and complete
- solubility ([4]; water, read-out: Measured concentration in filtered solution): 860 µg/mL (≈ 363 µM)

SMILES: CC(C)[C@H](NC(=O)[C@H](Cc1ccc(O)cc1)NCCCCC(=O)[C@H](Cc1ccc(O)cc1)NC(=O)[C@@H]1CCCN1C(=O)[C@H](CCC(=O)O)NC(=O)[C@H](CCC(=O)O)NC(=O)[C@H](Cc1c[nH]c2ccccc12)NC(=O)[C@@H]1CCCN1C(=O)[C@@H](NC(=O)[C@H](CCC(N)=O)NC(=O)c1ccc2c(c1)C(=O)OC21c2ccc(O)cc2Oc2cc(O)ccc21)C(C)C)C(=O)N[C@H](C(=O)N[C@@H](CCCCN)C(=O)N[C@@H](CCCCN)C(=O)N[C@@H](CO)C(=O)N[C@@H](CO)C(=O)NCC(=O)NCC(N)=O)C(C)C [ALM-488, HCl salt]
- onset of steep decrease in weight, presumably degradation ([5]; TGA): 200-250 °C
- weight loss by TGA ([5]; heated to 100° C.): 3.96%
- pH of resistance to pH change upon base addition (may coincide with pKa of glutamic acid and 5-FAM), first ([6]; NaOH titration): ~ 4.5
- pH of resistance to pH change upon base addition (may coincide with pKa of glutamic acid and 5-FAM), second ([6]; NaOH titration): ~ 6.5
- precipitation ([6]; above pH 4, NaOH titration): precipitated
- initial pH of mixture ([6]; before NaOH, acetate mixture ~50 mg/mL, listed as ALM-488 hydrochloride): ~ 1.8
- dissolution ([6]; pH >7, NaOH titration): complete dissolution
- peptide concentration in solution ([6]; pH >7, after dilution by base addition): ~ 47 mg/mL
- appearance ([6]; pH ~4.5 to 5.5, NaOH titration): opaque dispersion
- appearance ([6]; pH ~6.5, NaOH titration): clarification of the mixture
- solubility ([6]; water with naoh, pH <4, NaOH titration, read-out: concentration remaining in solution): > 50000 µg/mL
- solubility ([6]; water, visual assessment, solution pH <2, read-out: solubility): > 180000 µg/mL
- solution pH ([6]; ~55 mg/mL in water, start of titration): 1.7
- solution pH ([2]; 50 mg/mL in sterile water for injection): 1.87
- water content [7]: 4.08%
- Calculated total ALM-488 peptide concentration ([3]; 107 mM tris (pH 7.3)): 49.2 mg/mL
- Calculated total ALM-488 peptide concentration ([3]; 116 mM arginine (pH 7.61)): 51.7 mg/mL
- solubility ([3]; l-arginine titration): < 50000 µg/mL
- solubility ([3]; meglumine titration): < 50000 µg/mL
- solution pH ([3]; meglumine titration end (printed 107 mm tris)): 7.88
- Calculated total ALM-488 peptide concentration ([3]; meglumine titration, pH 7.88): 49.2 mg/mL
- solution pH ([3]; no L-arginine added): 1.86
- Calculated total ALM-488 peptide concentration ([3]; no L-arginine added (pH 1.86)): 55 mg/mL
- solution pH ([3]; no Tris added): 1.89
- Calculated total ALM-488 peptide concentration ([3]; no Tris added (pH 1.89)): 55 mg/mL
- solution pH ([3]; no meglumine added): 1.86
- Calculated total ALM-488 peptide concentration ([3]; no meglumine added (pH 1.86)): 55 mg/mL
- solubility ([3]; tromethamine (tris) titration): < 50000 µg/mL
- solution pH ([3]; with 107 mM tris): 7.3
- solution pH ([3]; with 116 mM arginine): 7.61
